Experiments:
Assay in all cases: FRET or BRET; Clover fusion protein constant at 50 nM, mRuby2 fusion of antizyme titrated; TBS pH 7.4 + 0.15% Tween-20, 1 hour at room temperature; plate reader, fit of donor quenching
Conditions in all cases: both partners purified
[1] = molecular target: T1, ODC-N327A (Clover fusion protein) (human, UniProt P11926 1-461, N327A)
T1 construct: human ornithine decarboxylase (hODC1) with N327A; As m5 with the point mutation; source: bacterial expression vector (pBAD), purified recombinant protein
T1 sequence (looked up): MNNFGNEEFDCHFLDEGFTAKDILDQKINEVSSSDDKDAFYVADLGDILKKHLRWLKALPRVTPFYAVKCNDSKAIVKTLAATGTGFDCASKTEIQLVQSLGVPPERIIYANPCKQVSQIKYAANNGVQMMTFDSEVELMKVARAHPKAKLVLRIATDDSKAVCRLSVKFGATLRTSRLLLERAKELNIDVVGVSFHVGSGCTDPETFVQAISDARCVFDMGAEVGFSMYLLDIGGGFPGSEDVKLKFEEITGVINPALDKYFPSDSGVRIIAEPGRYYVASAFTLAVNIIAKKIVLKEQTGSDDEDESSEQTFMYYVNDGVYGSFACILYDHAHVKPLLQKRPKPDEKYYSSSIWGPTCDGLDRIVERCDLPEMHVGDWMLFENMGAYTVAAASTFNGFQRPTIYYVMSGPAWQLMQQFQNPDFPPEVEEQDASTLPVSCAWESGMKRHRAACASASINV

[2] = molecular target: T2, ODC-Clover fusion protein (ornithine decarboxylase), wild type (human, UniProt P11926 1-461)
T2 construct: human ornithine decarboxylase (hODC1); The legend says 'ODC-Clover fusion proteins'; the methods speak of N-terminal fluorescent fusion proteins of hODC1, so Clover is probably N-terminal; also called hODC1; source: bacterial expression vector (pBAD), purified recombinant protein
T2 sequence (looked up): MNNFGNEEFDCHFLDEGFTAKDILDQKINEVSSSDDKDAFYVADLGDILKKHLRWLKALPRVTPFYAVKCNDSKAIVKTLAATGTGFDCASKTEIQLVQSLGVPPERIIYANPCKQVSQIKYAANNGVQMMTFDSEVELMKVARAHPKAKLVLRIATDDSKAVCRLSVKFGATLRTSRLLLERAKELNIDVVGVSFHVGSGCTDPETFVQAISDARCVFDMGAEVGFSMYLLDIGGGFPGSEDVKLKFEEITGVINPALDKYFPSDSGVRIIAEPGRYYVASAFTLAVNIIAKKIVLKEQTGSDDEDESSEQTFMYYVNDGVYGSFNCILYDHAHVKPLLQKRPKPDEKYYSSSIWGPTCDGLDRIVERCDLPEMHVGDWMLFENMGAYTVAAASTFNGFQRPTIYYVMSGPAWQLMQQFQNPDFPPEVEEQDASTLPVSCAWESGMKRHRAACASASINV

[3] = molecular target: T3, Clover-AZIN (antizyme inhibitor with an N-terminal Clover tag) (human, UniProt O14977 1-448)
T3 construct: The vector has a TEV protease site after the His tag; also called hAZIN1; source: bacterial expression vector (pBAD), purified recombinant protein; not shown: Clover, N-terminal, kept
T3 sequence (looked up): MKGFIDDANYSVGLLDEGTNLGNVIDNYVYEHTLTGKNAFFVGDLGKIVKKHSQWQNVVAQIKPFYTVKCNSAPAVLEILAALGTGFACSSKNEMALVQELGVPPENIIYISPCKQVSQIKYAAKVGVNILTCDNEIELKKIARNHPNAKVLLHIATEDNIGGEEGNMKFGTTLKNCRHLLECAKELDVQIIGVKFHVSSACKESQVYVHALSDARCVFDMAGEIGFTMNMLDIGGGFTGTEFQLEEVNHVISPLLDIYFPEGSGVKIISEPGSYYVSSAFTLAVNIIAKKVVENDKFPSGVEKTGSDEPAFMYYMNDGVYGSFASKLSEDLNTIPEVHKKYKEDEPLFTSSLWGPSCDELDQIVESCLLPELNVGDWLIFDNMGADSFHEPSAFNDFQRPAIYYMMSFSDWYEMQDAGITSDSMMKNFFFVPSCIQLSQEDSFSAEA

[4] = molecular target: T4, ODC-Y331S (Clover fusion protein) (human, UniProt P11926 1-461, Y331S)
T4 construct: human ornithine decarboxylase (hODC1) with Y331S; As m5 with the point mutation; source: bacterial expression vector (pBAD), purified recombinant protein
T4 sequence (looked up): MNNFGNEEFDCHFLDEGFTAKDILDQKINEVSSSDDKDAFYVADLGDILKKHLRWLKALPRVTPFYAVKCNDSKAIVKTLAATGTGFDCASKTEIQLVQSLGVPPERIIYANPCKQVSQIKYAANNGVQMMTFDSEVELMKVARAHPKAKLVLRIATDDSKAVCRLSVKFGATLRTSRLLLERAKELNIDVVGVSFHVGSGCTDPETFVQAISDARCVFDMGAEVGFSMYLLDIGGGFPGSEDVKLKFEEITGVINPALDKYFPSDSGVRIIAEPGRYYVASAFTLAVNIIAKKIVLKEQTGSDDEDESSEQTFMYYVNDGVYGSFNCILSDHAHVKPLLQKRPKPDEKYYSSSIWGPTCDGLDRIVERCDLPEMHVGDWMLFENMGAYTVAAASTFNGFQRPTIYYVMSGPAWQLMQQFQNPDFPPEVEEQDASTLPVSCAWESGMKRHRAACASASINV

B1: antizyme-mRuby2 (antizyme with a C-terminal mRuby2 tag) (natural protein)
chain: not shown
notes: human antizyme 1 (OAZ1), codon-optimized synthetic gene; An HRV 3C protease site lies between antizyme and mRuby2 (used for the cleavage control); also called AZ-mRuby2; AZ; source: bacterial expression vector (pBAD), gene codon optimized for E. coli, purified recombinant protein; not shown: mRuby2, C-terminal, kept
For B1, the Kd [1] was 192 nM, the Kd [2] was 508 nM and the Kd [3] was 22 nM. The Kd [4] was 277 nM.

Source: article PMC6420652, “Developing a novel FRET assay, targeting the binding between Antizyme-AZIN” (Scientific Reports, 2019)
